Measured values published in patent publication US20250270305A1 (OSAKA UNIVERSITY, published 2025).

Key:
[1] = target: T1, TGGEVIFKALS peptide (amino acid residues 192 to 202 of human Netrin-4) (human); assay: ELISA screening of hybridoma culture supernatant
T1 construct: The immunogen was C-Ahx-TGGEVIFKALS linked to bovine thyroglobulin; The ELISA antigen is named only as the TGGEVIFKALS peptide
T1 peptide: TGGEVIFKALS
Description: (§1) Four mice were immunized with the epitope peptide. After four immunizations, the blood was collected to determine the antibody titers using ELISA against recombinant human Netrin-4 and TGGEVIFKALS peptide. Mouse lymphocytes with increased antibody titers were fused with myeloma cells, and cultured in HAT medium to produce hybridomas. About ten days after cell fusion, antibody production in the culture supernatant was screened by ELISA (against recombinant human Netrin-4 and TGGEVIFKALS peptide), and 95 positive wells were selected. Primary cloning was then performed by limiting dilution, followed by screening by ELISA (against recombinant human Netrin-4 and TGGEVIFKALS peptide). Secondary cloning was then performed by limiting dilution, followed by screening by ELISA (against recombinant human Netrin-4 and TGGEVIFKALS peptide). A single clone was selected. The selected clone was expanded, and cultured at a high density in a serum-free medium. The culture medium was collected and purified on a protein A column to produce IgG. Purity was measured using AKTA-FPLC, and the titer was measured by ELISA. IgG was further purified with low endotoxin levels and used for the subsequent experiments.

[2] = target: T2, recombinant human Netrin-4 (human, UniProt Q9HB63 19-628, limits assumed); assay: ELISA screening of hybridoma culture supernatant
T2 sequence: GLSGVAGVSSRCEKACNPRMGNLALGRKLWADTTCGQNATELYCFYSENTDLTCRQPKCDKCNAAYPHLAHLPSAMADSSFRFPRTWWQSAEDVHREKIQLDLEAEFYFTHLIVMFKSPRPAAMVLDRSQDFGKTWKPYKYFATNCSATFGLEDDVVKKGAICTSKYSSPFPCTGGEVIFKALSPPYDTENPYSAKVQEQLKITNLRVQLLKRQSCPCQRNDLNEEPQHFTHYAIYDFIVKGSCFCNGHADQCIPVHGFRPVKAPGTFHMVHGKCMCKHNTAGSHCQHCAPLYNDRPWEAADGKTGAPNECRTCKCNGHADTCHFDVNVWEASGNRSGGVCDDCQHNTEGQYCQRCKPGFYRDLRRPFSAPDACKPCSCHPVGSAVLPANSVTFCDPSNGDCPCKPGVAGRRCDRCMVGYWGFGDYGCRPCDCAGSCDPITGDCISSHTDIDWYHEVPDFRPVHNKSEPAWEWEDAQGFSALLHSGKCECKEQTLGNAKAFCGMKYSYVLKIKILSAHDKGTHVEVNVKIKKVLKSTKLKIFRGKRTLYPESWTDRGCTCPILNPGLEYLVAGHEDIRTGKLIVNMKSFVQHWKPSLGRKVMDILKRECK
Description: as §1

binding result [1]: binds
binding result [2]: binds
B1: anti-Netrin-4 monoclonal antibody produced by the hybridoma cell line Human Netrin-4 (192-202)-6A1 (Accession No. NITE BP-03603) (antibody, V domains shown)
VH: QVQLHQSGPELVRPGASVTLSCKASGYTFTDYEMHWVKQTPVHGLEWIGAIDPETGDTVYNQKFKGKATLTADKSSSTAYMELSSLTSEDSAVYYCVDGFSDHYWGQGTTLTVSS
VL: VLVLTQTPLSLPVRLGDRASISCRSSQSLVHSSGNTFLHWYLQKPGQSPKLLIYKVSSRFSGVPDRFSGSGSGTDFTLKISRMEAEDLGVYFCSQSTHIPYTFGGGTKLEIKR
notes: In the ELISA screens the antibody was hybridoma culture supernatant
